For data set [1], the system named is OsHPPD. The data set can be described thus: HPPD enzyme activity assay: Km, Kcat and Kcat/Km of OsHPPDs. Format: biochemical, Oryza sativa. The following applies: substrate 4-HPP. As for the experimental part: The rice OsHPPD protein and homogentisate 1,2-dioxygenase (HGD) were obtained by heterologously expressed in E. coli wherein the gene was inserted into the pET 15b expression vector and expressed in the BL21 (DE3) expression strain, and purified by the Ni-NTA resin. • (1) The HPPD open reading frame (ORF) of the positive clone was cloned into the pET-15b vector to form a 6His-HPPD expression vector, and transformed into the BL21 (DE3) cell. The expression strain was inoculated in 10 mL of 2×YT culture medium, and cultivated overnight on a shaker at 37° C. and 200 rpm. The 10 mL of the culture was inoculated in 1 L of 2×YT culture medium and cultivated until the OD600 reached 0.6-0.8, cooled to a temperature of 16° C., and subjected to induced-expression with 0.2 mM IPTG (isopropyl thiogalactoside) overnight. The strains were collected by centrifugation at 2800×g. • (2) The collected strains were re-suspended with the buffer A (50 mM Tris pH 8.0, 500 mM NaCl, 20 mM imidazole), to which PMSF (phenylmethanesulfonyl fluoride) at the final concentration of 1 mM and 250 μL of a protease inhibitor cocktail (i.e., a mixture of multiple protease inhibitors), and mixed. The cells were broken by ultrasound in ice-bath (40% total power, work for 3 seconds/6 seconds interval, 2×30 minutes (Ningbo Scientz Biotechnology Co., Ltd., Ningbo, China)), and centrifuged at 12000 rpm at 4° C. for 30 minutes; and the supernatant was filtered with a 0.22 μm filter membrane. • (3) Purification with the Ni-NTA column: the supernatant was in contact with the Ni-NTA resin, then rinsed with a buffer A containing 50 mM imidazole to remove the impurities, and finally, eluted with an elution buffer containing 400 mM imidazole. • (4) The approximate purity of the protein of interest was analyzed by SDS-PAGE. The eluates containing of the protein of interest were combined and concentrated by an ultrafiltration device (10 kDa molecular weight cut-off, Amicon Ultra). The solution was replaced with a solution containing 20 mM Tris-HCl and having a pH of 7.5 for at least 3 times to desalt. The total protein concentration was determined by the BCA method.
(§1) • 1. The activity of a HPPD enzyme was determined by detecting the conversion of 4-hydroxyphenylpyruvate (4-HPP) to homogentisic acid (HGA) catalyzed by the HPPD enzyme and the conversion of HGA to maleylacetoacetate (MAA) catalyzed by homogentisate dioxygenase. […] 6 μl of 4-hydroxyphenylpyruvate (4-HPP) having a concentration that was as 50 times as the final concentration of the substrate were added to an ELSA plate, and then 294 μL of hydroxyethylpiperazine ethanesulfonic acid (HEPES) with a final concentration of 25 mM and pH of 7, 2 mM of Vitamin C, 10 mM FeSO4, 50 nM homogentisate dioxygenase and 5 to 240 nM HPPD enzyme were added thereto at one time. The final concentration of reaction substrate 4-HPP usually ranged from 1 to 100 μM. • 3. The absorbance changes of the reaction wells at 318 nm were continuously monitored by a UV ELISA detector (ReadMax 1900 photoabsorption type full-wavelength microplate reader) (Shanghai). • 4. Determination of Km, Kcat and Kcat/Km of OsHPPDs
Vmax is the maximum catalytic reaction rate achievable by enzymatic catalysis. The Michaelis constant Km is the concentration of a substrate required when the enzyme catalyzed the reaction to achieve half of the maximum rate (Vmax). The Km value is a constant and independent of the enzyme concentration, and altered as substrate type, reaction temperature, pH, and ionic strength changed. […] is a catalytic constant of an enzyme and referred to the number of substrate molecules that could be catalyzed by an enzyme molecule or enzyme active center per second. KCat/Km represents the catalytic efficiency of enzyme. It could be seen from the data in the table that the catalytic efficiency of most HPPD mutants was enhanced.

Data set [2] has as its system OsHPPD proteins. The data set can be described thus: Inhibitory activity (IC50) of the herbicide 101 and huanbifucaotong against OsHPPD proteins. Type of data set: biochemical, Oryza sativa. The following applies: for resistance in in vitro enzyme activity experiments: herbicides 101 and huanbifucaotong. As for the experimental part: as §1
• 5. Determination of inhibitory activity (IC50) of the herbicide 101 and huanbifucaotong against OsHPPD proteins
Due to the unique properties of each of 101 and huangbifucaotong, the degree of the increased IC50 value is not completely consistent for the two HPPD herbicides.

Data set [3] deals with rice HPPD (OsHPPD). The data set can be described thus: Color reaction of recombinant E. coli expressing wild-type or mutant rice HPPD, cultured in 96-well plate in medium containing an HPPD-inhibiting herbicide and tyrosine. On the set-up: key to relative resistance to Tembotrione / relative resistance to Benzuofucaotong metabolic product / relative resistance to Huanbifucaotong / relative resistance to Topramezone / relative resistance to Mesotrione / resistance to Tembotrione / resistance to Benzucfucaotong metabolic product / resistance to Huanbifucaotong / resistance to Topramezone / resistance to Mesotrione: The more the plus sign “+”, the deeper the color and the higher the resistance/tolerance as compared to the wild type. Format: cell-based, Oryza sativa. The settings on record: for resistance ranking in color reaction: compound 101. The text has this: The rice full-length OsHPPD enzyme has 446 amino acids and its amino acid sequence is set forth in SEQ ID NO: 2, wherein the amino acids 1-50 are considered to constitute a signal peptide which is responsible for directing into chloroplast (Siehl et al. Plant Physiol. 2014 November; 166(3): 1162-1176). Therefore, from the amino acid at the 51-position to the amino acid at the […], a saturated random mutation was made for each amino acid. This was achieved by performing a bridge PCR by using a primer containing a coding sequence of an amino acid to be mutated into NNK and another suitable conventional primer. In NNK, N represented A/T/G/C and K represented G/T, and the NNK codon could encode any one of 20 amino acids or terminators. Accordingly, this was a saturated mutation. Please see: Kille S. Acevedo-Rocha C G, Parra L P, Zhang Z G, Opperman D J, Reetz M T, Acevedo J P (2013) Reducing codon redundancy and screening effort of combinatorial protein libraries created by saturation mutagenesis. ACS Synth Biol 2(2):83-92; Directed Evolution Library Creation: methods and protocols 2nd ed. Edited by Elizabeth M. J. Gillam, Janine N. Copp and David F. Ackerley New York, NY United States: Springer, 2014. doi:10.1007/978-1-4939-1053-3. A large number of mutants would be produced. The mutant was cloned into a linearized pET-44a vector and transformed into E. co/i, which was cultivated by using a 96-well plate in a 2×YT culture solution containing an HPPD-inhibiting herbicide (such as 1-2 μM tembotrione) and a substrate tyrosine (1 g/L) in a shaker at 28° C. and 150 rpm for 24 hours for expression, and then the mutants were rapidly screened out according to their color browning. By using the method, 10 single amino acid mutants, A103S, H141R, H141 K, H141T, A165V, V191I, R220K, G342D, D370N and K410I, were screened out. The color reaction of these resistant mutants in the presence of tembotrione and the metabolic product of benzuofucaotong relative to that of the wild type was as shown in FIG. 1.
Similarly, the color reaction of these mutants in the presence of the other three HPPD-inhibiting herbicides huanbifucaotong, topramezone and mesotrione were determined, see FIGS. 2 and 3. The resistance/tolerance of each of the mutants to the five herbicides was roughly estimated on the basis of color changes thereof and the results were shown in Table 1. The more the plus sign “+”, the deeper the color and the higher the resistance/tolerance as compared to the wild type.
HPPD-inhibiting herbicides inhibited HPPD enzymatic activity. When tyrosine was converted to 4-hydroxyphenylpyruvate (HPP) under the action of tyrosine transaminase, the inactivated HPPD was unable to oxidize 4-hydroxyphenylpyruvate into homogentisic acid (HGA). HGA was dark brown. Therefore, if an HPPD mutant was resistant to or tolerant to an herbicide, after expressed in E. coli, the mutant could also oxidize 4-hydroxyphenylpyruvate into homogentisic acid, whereby dark brown appeared. Therefore, E. coli was cultured in a 2×YT culture medium containing a HPPD-inhibiting herbicide and a substrate tyrosine using a 96-well plate to express HPPD, and these mutants were rapidly screened according to their color changes. • (1) Preparation of 2×YT culture medium (1 g/L L-Tyr, 0.1 mM IPTG, 0.01 mM MnCl2 and 100 mg/L ampicillin were added). • (2) 0.1 mL of the above medium was added to each well of a 96-well plate, and the expression clones of OsHPPD wild type or mutant (OsHPPD Mut) from the E. coli plate obtained by the above transformation were subjected to liquid culture in the 96-well plate. HPPD inhibitors having a final concentration of 1 μM-20 μM were added according to different selected agents, for example, the final concentration of tembotrione was 1.7 μM while mesotrione was 10 μM. […]

Setting [4] is: Table 1, single-site mutants, estimated from color change, wild type = +.
Setting [5] is: Table 3, single-site and multi-site mutants, different time and plates, estimated from color shades.

These results are taken from patent publication US12428627B2, “Mutant p-hydroxyphenylpyruvate dioxygenase, and coding nucleic acid and use thereof” (Qingdao Kingagroot Chemical Compound Co., Ltd., priority 2018, dated 2025).

B1: N338D/G342D/R346H: mutant rice HPPD (protein, listed as Oryza sativa)
chain: MPPTPTPTATTGAVSAAAAAGENAGFRLVGHRRFVRANPRSDRFQALAFHHVELWCADAASAAGRFAFALGAPLAARSDLSTGNSAHASLLLRSASVAFLFTAPYGGDHGVGADAATTASIPSFSPGAARRFAADHGLAVHAVALRVADAADAFRASVAAGARPAFQPADLGGGFGLAEVELYGDVVLRFVSHPDGADAPFLPGFEGVSNPGAVDYGLRRFDHVVGNVPELAPVAAYISGFTGFHEFAEFTAEDVGTAESGLNSVVLANNAETVLLPLNEPVHGTKRRSQIQTYLDHHGGPGVQHIALASDDVLGTLREMRARSAMGGFEFLAPPPPDYYDDVRRHAGDVLSEEQINECQELGVLVDRDDQGVLLQIFTKPVGDRPTFFLEMIQRIGCMEKDESGQEYQKGGCGGFGKGNFSELFKSIEEYEKSLEAKQAPTVQGS
modifications: The amino acid sequence of Wild-Type rice HPPD protein (OsHPPD _WT)
Turning to B1, the Km in data set [1] stood at 6.3 µM. Besides, the “resistance in in vitro enzyme activity experiments” value in data set [2] was “good resistance”. In data set [3], the “resistance ranking in color reaction” value is listed as “highest resistance”.

B2: H141R/N338D/G342D/K418P: mutant rice HPPD (protein)
chain: MPPTPTPTATTGAVSAAAAAGENAGFRLVGHRRFVRANPRSDRFQALAFHHVELWCADAASAAGRFAFALGAPLAARSDLSTGNSAHASLLLRSASVAFLFTAPYGGDHGVGADAATTASIPSFSPGAARRFAADHGLAVRAVALRVADAADAFRASVAAGARPAFQPADLGGGFGLAEVELYGDVVLRFVSHPDGADAPFLPGFEGVSNPGAVDYGLRRFDHVVGNVPELAPVAAYISGFTGFHEFAEFTAEDVGTAESGLNSVVLANNAETVLLPLNEPVHGTKRRSQIQTYLDHHGGPGVQHIALASDDVLGTLREMRARSAMGGFEFLAPPPPDYYDDVRRRAGDVLSEEQINECQELGVLVDRDDQGVLLQIFTKPVGDRPTFFLEMIQRIGCMEKDESGQEYQKGGCGGFGPGNFSELFKSIEEYEKSLEAKQAPTVQGS
For B2, the Km in data set [1] turned out to be 18.8 µM. For the same molecule, the “resistance in in vitro enzyme activity experiments” value in data set [2] is given as “higher resistance”. Moreover, the “resistance ranking in color reaction” value in data set [3] is on record as “strongest resistance”.

B3: WT: wild-type rice p-hydroxyphenylpyruvate dioxygenase (OsHPPD), SEQ ID NO: 2 (protein, listed as Oryza sativa)
chain: MPPTPTPTATTGAVSAAAAAGENAGFRLVGHRRFVRANPRSDRFQALAFHHVELWCADAASAAGRFAFALGAPLAARSDLSTGNSAHASLLLRSASVAFLFTAPYGGDHGVGADAATTASIPSFSPGAARRFAADHGLAVHAVALRVADAADAFRASVAAGARPAFQPADLGGGFGLAEVELYGDVVLRFVSHPDGADAPFLPGFEGVSNPGAVDYGLRRFDHVVGNVPELAPVAAYISGFTGFHEFAEFTAEDVGTAESGLNSVVLANNAETVLLPLNEPVHGTKRRSQIQTYLDHHGGPGVQHIALASDDVLGTLREMRARSAMGGFEFLAPPPPNYYDGVRRRAGDVLSEEQINECQELGVLVDRDDQGVLLQIFTKPVGDRPTFFLEMIQRIGCMEKDESGQEYQKGGCGGFGKGNFSELFKSIEEYEKSLEAKQAPTVQGS
modifications: The amino acid sequence of Wild-Type rice HPPD protein (OsHPPD _WT)
As to B3, in data set [1], the Km came out at 6.7 µM. In addition, the “concentration of compound 101 at which activity is completely inhibited” value in data set [2] (FIG. 10 inhibition curve) is given as “about 60 μM”. In data set [3] (setting [4]), the “relative resistance to Benzuofucaotong metabolic product” value is reported as “+”, the “relative resistance to Huanbifucaotong” value is reported as “+”, the “relative resistance to Mesotrione” value was “+” and the “relative resistance to Tembotrione” value is on record as “+”. For the same molecule, in data set [3] (setting [4]), the “relative resistance to Topramezone” value is “+”. Further, in data set [3] (setting [5]), the “resistance to Benzucfucaotong metabolic product” value is listed as “+”, the “resistance to Huanbifucaotong” value is reported as “+”, the “resistance to Mesotrione” value is reported as “+” and the “resistance to Tembotrione” value is listed as “+”. In data set [3] (setting [5]), the “resistance to Topramezone” value was “+”.
